Literature values, collected in paper PMC9927262.
pKd: −log10 of the molar value. Like-named read-outs stand apart in the source and are kept apart here.

Assays:
[1] = target: Spike RBD RBD (SARS-CoV-2) (UniProt P0DTC2)
[2] = target: Spike RBD RBD (SARS-CoV-2) (UniProt P0DTC2); remark: listed apart in the source

Row | Substance | pKd [1] | pKd [2]
1 | bamlanivimab | 8.46 | 
2 | etesevimab |  | 8.39
